Test results as given in paper PMC10875981.

Biological target: FCγ receptor II (CD32), endogenous on K562 and U937 cells (human (endogenous in K562 and U937)) (UniProt P12318)
Sequence of UniProt P12318 (P12318 34-317): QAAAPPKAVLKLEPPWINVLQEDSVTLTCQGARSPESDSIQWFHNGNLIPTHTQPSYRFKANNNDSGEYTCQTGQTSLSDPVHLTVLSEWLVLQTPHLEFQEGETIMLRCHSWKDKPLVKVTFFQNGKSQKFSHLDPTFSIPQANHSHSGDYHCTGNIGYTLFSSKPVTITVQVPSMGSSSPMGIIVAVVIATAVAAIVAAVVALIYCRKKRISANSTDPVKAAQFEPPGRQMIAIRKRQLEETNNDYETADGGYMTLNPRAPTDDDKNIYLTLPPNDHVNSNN

CD107a^+ iNKT cells (treated with 6B11 mAb 50 ng/mL overnight, washed) after coculture with K562 cells, E/T 2:1, in the presence of the blocking anti-CD32 mAb (10 µg/mL): 1.8%
CD107a^+ iNKT cells (treated with 6B11 mAb 50 ng/mL overnight, washed) after coculture with K562 cells, E/T 2:1, with isotype mIgG1 (10 µg/mL): 52.8%
CD107a^+ iNKT cells (treated with 6B11 mAb 50 ng/mL overnight, washed) after coculture with U937 cells, E/T 2:1, in the presence of the anti-CD32 mAb: 15.6%
CD107a^+ iNKT cells (treated with 6B11 mAb 50 ng/mL overnight, washed) after coculture with U937 cells, E/T 2:1, with mIgG1 as a control: 38.3%
Substance: anti-Vα24Jα18 TCR mAb (6B11 mAb) (antibody)
